The target in assay [1] is GST fusion protein of Tulp1-N (1M-298Q) (mouse) (UniProt Q9Z273). Briefly: phage binding assay.
The target in assay [2] is GST-free tubby-N (tubby N-terminus, 1M-242P) (mouse) (UniProt P50586). In words: phage binding assay.
Chain of GST-free tubby-N (tubby N-terminus, 1M-242P) (mouse) (P50586 1-242): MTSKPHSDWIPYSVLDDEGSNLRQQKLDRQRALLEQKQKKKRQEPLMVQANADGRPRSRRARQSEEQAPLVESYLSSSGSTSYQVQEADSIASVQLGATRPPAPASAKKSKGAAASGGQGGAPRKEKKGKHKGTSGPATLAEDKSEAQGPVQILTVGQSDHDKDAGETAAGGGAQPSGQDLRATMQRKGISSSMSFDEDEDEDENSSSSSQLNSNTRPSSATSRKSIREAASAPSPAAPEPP

Chain of GST fusion protein of Tulp1-N (1M-298Q) (mouse) (Q9Z273 1-298): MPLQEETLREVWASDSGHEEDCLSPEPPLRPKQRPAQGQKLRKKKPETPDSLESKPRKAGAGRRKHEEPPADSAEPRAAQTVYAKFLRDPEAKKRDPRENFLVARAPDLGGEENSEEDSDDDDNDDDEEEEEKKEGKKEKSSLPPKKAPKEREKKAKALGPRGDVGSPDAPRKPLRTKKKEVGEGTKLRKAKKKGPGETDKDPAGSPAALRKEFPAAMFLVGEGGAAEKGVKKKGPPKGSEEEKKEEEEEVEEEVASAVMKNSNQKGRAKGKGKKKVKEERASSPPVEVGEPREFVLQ
Chain of Zinc finger E-box binding homeobox 1 (Zeb1) phage clone, 903E-1021E (Q64318 whole entry, the tested form may be a part): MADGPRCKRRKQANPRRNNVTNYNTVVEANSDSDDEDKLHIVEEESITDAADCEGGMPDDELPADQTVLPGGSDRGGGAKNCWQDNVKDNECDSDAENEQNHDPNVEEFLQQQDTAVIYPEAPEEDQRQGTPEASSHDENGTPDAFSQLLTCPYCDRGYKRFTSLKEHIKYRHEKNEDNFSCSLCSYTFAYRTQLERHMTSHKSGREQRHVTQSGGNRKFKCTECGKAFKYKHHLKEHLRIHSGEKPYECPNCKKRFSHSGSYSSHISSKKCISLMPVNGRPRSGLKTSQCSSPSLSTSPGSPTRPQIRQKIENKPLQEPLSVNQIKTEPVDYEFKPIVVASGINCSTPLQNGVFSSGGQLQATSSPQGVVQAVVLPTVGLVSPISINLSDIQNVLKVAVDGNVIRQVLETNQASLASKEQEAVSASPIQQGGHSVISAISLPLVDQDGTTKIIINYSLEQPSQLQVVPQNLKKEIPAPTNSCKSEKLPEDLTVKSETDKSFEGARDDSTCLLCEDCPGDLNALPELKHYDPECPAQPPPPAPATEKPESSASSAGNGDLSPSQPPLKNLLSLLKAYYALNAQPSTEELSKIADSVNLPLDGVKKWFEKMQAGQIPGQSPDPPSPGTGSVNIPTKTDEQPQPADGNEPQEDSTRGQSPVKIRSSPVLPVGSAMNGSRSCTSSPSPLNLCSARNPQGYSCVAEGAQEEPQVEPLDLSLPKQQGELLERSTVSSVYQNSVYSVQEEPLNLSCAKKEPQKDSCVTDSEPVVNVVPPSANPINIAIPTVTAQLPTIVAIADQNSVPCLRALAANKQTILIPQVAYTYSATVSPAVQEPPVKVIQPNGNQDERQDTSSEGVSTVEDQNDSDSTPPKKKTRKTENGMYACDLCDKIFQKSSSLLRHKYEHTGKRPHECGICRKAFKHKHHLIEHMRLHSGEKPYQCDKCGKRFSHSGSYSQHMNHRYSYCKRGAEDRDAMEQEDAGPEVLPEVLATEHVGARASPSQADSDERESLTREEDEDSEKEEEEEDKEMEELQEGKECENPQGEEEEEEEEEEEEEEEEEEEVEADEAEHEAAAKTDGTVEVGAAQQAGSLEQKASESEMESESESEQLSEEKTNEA
Chain of ATP-binding cassette F1 (Abcf1) phage clone, 57K-196G (Q6P542 whole entry, the tested form may be a part): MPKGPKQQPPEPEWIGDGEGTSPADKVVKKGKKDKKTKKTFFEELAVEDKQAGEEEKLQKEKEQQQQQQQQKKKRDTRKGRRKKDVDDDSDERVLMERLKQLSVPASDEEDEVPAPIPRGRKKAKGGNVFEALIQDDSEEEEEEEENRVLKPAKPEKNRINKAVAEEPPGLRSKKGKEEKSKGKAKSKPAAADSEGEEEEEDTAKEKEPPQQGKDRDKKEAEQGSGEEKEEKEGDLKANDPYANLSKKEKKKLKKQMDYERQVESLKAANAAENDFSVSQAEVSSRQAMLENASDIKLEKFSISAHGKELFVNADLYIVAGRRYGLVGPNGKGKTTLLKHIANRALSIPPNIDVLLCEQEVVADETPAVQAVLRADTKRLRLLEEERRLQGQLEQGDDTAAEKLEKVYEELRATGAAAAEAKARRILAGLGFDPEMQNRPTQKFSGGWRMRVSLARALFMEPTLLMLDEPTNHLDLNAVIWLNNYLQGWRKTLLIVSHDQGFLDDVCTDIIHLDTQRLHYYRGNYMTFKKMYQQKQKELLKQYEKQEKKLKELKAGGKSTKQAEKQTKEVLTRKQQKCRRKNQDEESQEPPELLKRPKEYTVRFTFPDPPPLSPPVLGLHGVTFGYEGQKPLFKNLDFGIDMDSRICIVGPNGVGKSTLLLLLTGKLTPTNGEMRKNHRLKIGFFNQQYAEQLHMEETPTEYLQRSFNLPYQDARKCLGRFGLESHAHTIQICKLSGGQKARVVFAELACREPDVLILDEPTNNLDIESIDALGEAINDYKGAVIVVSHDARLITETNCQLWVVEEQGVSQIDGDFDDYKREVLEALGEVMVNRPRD
Chain of High mobility group (Hmg) box 2 (Hmgb2) phage clone, 89K-188E (P30681 whole entry, the tested form may be a part): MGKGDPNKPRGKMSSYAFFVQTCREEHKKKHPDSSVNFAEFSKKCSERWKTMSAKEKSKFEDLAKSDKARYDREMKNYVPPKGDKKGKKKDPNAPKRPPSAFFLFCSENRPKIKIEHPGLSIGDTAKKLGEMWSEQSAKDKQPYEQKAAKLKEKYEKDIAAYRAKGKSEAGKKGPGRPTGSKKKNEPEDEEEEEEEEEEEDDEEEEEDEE
Chain of Structure specific recognition protein 1 (Ssrp1) phage clone, 486E-619G (Q08943 2-708): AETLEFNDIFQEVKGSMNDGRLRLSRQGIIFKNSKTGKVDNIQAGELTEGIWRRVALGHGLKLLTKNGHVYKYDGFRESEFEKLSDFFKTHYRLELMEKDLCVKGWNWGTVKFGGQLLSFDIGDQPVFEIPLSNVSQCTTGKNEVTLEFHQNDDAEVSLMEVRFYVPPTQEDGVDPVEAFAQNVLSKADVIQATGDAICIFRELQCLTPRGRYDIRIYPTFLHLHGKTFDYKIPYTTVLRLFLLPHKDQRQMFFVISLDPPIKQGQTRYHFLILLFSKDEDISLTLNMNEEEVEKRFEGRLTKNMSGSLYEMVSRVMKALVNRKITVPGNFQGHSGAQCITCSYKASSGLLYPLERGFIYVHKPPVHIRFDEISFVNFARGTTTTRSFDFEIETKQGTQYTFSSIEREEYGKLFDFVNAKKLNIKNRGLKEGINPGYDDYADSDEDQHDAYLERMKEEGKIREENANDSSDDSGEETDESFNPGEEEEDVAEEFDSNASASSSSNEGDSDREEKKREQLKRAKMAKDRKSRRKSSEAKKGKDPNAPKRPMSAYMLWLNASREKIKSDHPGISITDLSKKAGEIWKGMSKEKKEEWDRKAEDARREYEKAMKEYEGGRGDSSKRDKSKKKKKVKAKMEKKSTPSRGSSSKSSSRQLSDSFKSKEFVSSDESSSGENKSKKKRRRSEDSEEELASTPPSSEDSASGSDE
Chain of Zinc finger protein 609 (Zfp609) phage clone, 1M-183E (domain or fragment) (Q8BZ47 whole entry, the tested form may be a part): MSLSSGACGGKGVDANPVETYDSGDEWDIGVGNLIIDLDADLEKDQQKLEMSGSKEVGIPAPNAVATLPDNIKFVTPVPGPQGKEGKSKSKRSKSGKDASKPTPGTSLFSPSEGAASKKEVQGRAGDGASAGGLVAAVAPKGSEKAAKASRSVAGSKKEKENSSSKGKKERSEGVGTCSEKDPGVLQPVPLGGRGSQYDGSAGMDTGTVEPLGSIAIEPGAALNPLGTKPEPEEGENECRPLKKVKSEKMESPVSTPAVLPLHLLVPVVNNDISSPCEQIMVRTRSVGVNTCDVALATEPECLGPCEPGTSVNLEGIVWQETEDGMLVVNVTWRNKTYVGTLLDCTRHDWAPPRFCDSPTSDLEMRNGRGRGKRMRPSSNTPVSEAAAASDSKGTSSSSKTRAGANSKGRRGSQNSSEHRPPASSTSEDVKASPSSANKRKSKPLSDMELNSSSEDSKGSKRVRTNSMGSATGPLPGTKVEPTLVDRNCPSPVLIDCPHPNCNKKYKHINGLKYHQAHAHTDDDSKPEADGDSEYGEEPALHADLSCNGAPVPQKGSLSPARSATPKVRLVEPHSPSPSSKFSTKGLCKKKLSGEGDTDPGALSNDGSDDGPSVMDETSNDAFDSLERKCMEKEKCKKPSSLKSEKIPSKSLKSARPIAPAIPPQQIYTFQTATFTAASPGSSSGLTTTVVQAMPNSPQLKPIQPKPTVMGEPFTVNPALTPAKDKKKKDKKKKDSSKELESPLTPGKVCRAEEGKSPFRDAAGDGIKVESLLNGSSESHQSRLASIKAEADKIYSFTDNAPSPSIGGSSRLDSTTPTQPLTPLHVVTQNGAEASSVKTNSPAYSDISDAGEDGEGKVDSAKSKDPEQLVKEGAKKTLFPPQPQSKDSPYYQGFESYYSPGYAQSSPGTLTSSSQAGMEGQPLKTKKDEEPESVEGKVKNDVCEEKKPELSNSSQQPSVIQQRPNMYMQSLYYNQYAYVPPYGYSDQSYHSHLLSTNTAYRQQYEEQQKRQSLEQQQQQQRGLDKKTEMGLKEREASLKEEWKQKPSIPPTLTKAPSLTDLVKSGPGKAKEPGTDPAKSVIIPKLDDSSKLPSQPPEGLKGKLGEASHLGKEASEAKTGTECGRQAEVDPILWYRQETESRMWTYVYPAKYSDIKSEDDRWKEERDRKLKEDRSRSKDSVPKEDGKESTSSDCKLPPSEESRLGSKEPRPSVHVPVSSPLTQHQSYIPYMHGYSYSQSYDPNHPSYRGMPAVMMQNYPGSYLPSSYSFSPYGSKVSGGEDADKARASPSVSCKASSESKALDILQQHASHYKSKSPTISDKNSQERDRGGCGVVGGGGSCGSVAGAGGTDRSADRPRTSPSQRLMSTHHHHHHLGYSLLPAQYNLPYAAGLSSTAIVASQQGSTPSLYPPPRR
Chain of Hmg. nucleosomal binding domain 1 (Hmgn1) phage clone, 1M-49K (P18608 2-96): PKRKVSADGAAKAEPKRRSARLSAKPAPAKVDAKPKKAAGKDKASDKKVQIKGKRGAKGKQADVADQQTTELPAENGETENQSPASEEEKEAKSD

As to “ATP-binding cassette F1 (Abcf1) phage clone, 57K-196G (from UniProt Q6P542 57-196) (domain or fragment)”, the binding specificity, clonal phage vs. control phage in assay [1] is 33.4 X; in assay [2], 68.2 X.
In assay [2], “Armadillo repeat containing, X-linked 4 phage clone, 419S-587N (domain or fragment)” displayed a binding specificity, clonal phage vs. control phage of 40.1 X.
On to “High mobility group (Hmg) box 2 (Hmgb2) phage clone, 89K-188E (from UniProt P30681 89-188) (domain or fragment)”, for which the binding specificity, clonal phage vs. control phage is 55.2 X in assay [1] and 312 X in assay [2].
In assay [2], “Hmg. box 2-like 1 (Hmgb2l1) phage clone, 170K-305G (domain or fragment)” displayed a binding specificity, clonal phage vs. control phage of 29.8 X.
Same read-out and setting: the same measure for “Hmg. nucleosomal binding domain 1 (Hmgn1) phage clone, 1M-49K (from UniProt P18608 1-49) (domain or fragment)”: 61.4 X; for “Microtubule-associated protein 7 (Mtap7) phage clone, 23A-114R (from UniProt O88735 23-114) (domain or fragment)”: 3.5 X.
“PC4 and SFRS1 interacting protein 1 (Psip1) phage clone, 152K-219K (from UniProt Q99JF8-1 152-219) (domain or fragment)”: the binding specificity, clonal phage vs. control phage in assay [1] was determined as 24.1 X; in assay [2] it was 196 X.
On the same counts, the results for “Structure specific recognition protein 1 (Ssrp1) phage clone, 486E-619G (from UniProt Q08943-1 486-619) (domain or fragment)” are 39.7 X and 157 X.
On the same counts, the results for “Zinc finger E-box binding homeobox 1 (Zeb1) phage clone, 903E-1021E (from UniProt Q64318 903-1021) (domain or fragment)” are 56.7 X and 284 X.
Substance “Zinc finger protein 609 (Zfp609) phage clone, 1M-183E (domain or fragment)” registered a binding specificity, clonal phage vs. control phage in assay [2] of 53.2 X.

For the origin of these results see paper PMC3816987.
